Assay results published in publication PMC10540216, “Activity Guided Azide-methyllysine Photo-trapping for Substrate Profiling of Lysine Demethylases” (Journal of the American Chemical Society, 2023).

Test system: KDM4A-I71AzF
Experiment: CASI: photo-crosslinking with HEK293T cell extracts, StrepTactin enrichment and LC-MS/MS proteomics;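 note: lysates from HEK293T cells pretreated with a KDM4 inhibitor to raise proteome methylation, affinity-purified after ±UV, gel-resolved, trypsin-digested, with exclusive unique peptides per protein averaged per condition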
Format: binding, human
Details: sheet "Final results but with 0.01"

Molecule	Fold change (+UV/-UV)
CPSF1_HUMAN (protein, UniProt Q10570 1-1443, looked up) Cleavage and polyadenylation …: MYAVYKQAHPPTGLEFSMYCNFFNNSERNLVVAGTSQLYVYRLNRDAEALTKNDRSTEGKAHREKLELAASFSFFGNVMSMASVQLAGAKRDALLLSFKDAKLSVVEYDPGTHDLKTLSLHYFEEPELRDGFVQNVHTPRVRVDPDGRCAAMLVYGTRLVVLPFRRESLAEEHEGLVGEGQRSSFLPSYIIDVRALDEKLLNIIDLQFLHGYYEPTLLILFEPNQTWPGRVAVRQDTCSIVAISLNITQKVHPVIWSLTSLPFDCTQALAVPKPIGGVVVFAVNSLLYLNQSVPPYGVALNSLTTGTTAFPLRTQEGVRITLDCAQATFISYDKMVISLKGGEIYVLTLITDGMRSVRAFHFDKAAASVLTTSMVTMEPGYLFLGSRLGNSLLLKYTEKLQEPPASAVREAADKEEPPSKKKRVDATAGWSAAGKSVPQDEVDEIEVYGSEAQSGTQLATYSFEVCDSILNIGPCANAAVGEPAFLSEEFQNSPEPDLEIVVCSGHGKNGALSVLQKSIRPQVVTTFELPGCYDMWTVIAPVRKEEEDNPKGEGTEQEPSTTPEADDDGRRHGFLILSREDSTMILQTGQEIMELDTSGFATQGPTVFAGNIGDNRYIVQVSPLGIRLLEGVNQLHFIPVDLGAPIVQCAVADPYVVIMSAEGHVTMFLLKSDSYGGRHHRLALHKPPLHHQSKVITLCLYRDLSGMFTTESRLGGARDELGGRSGPEAEGLGSETSPTVDDEEEMLYGDSGSLFSPSKEEARRSSQPPADRDPAPFRAEPTHWCLLVRENGTMEIYQLPDWRLVFLVKNFPVGQRVLVDSSFGQPTTQGEARREEATRQGELPLVKEVLLVALGSRQSRPYLLVHVDQELLIYEAFPHDSQLGQGNLKVRFKKVPHNINFREKKPKPSKKKAEGGGAEEGAGARGRVARFRYFEDIYGYSGVFICGPSPHWLLVTGRGALRLHPMAIDGPVDSFAPFHNVNCPRGFLYFNRQGELRISVLPAYLSYDAPWPVRKIPLRCTAHYVAYHVESKVYAVATSTNTPCARIPRMTGEEKEFETIERDERYIHPQQEAFSIQLISPVSWEAIPNARIELQEWEHVTCMKTVSLRSEETVSGLKGYVAAGTCLMQGEEVTCRGRILIMDVIEVVPEPGQPLTKNKFKVLYEKEQKGPVTALCHCNGHLVSAIGQKIFLWSLRASELTGMAFIDTQLYIHQMISVKNFILAADVMKSISLLRYQEESKTLSLVSRDAKPLEVYSVDFMVDNAQLGFLVSDRDRNLMVYMYLPEAKESFGGMRLLRRADFHVGAHVNTFWRTPCRGATEGLSKKSVVWENKHITWFATLDGGIGLLLPMQEKTYRRLLMLQNALTTMLPHHAGLNPRAFRMLHVDRRTLQNAVRNVLDGELLNRYLYLSTMERSELAKKIGTTPDIILDDLLETDRVTAHF	0.6923
DSG1_HUMAN (protein, UniProt Q02413 50-1049, looked up) Desmoglein-1: EWIKFAAACREGEDNSKRNPIAKIHSDCAANQQVTYRISGVGIDQPPYGIFVINQKTGEINITSIVDREVTPFFIIYCRALNSMGQDLERPLELRVRVLDINDNPPVFSMATFAGQIEENSNANTLVMILNATDADEPNNLNSKIAFKIIRQEPSDSPMFIINRNTGEIRTMNNFLDREQYGQYALAVRGSDRDGGADGMSAECECNIKILDVNDNIPYMEQSSYTIEIQENTLNSNLLEIRVIDLDEEFSANWMAVIFFISGNEGNWFEIEMNERTNVGILKVVKPLDYEAMQSLQLSIGVRNKAEFHHSIMSQYKLKASAISVTVLNVIEGPVFRPGSKTYVVTGNMGSNDKVGDFVATDLDTGRPSTTVRYVMGNNPADLLAVDSRTGKLTLKNKVTKEQYNMLGGKYQGTILSIDDNLQRTCTGTININIQSFGNDDRTNTEPNTKITTNTGRQESTSSTNYDTSTTSTDSSQVYSSEPGNGAKDLLSDNVHFGPAGIGLLIMGFLVLGLVPFLMICCDCGGAPRSAAGFEPVPECSDGAIHSWAVEGPQPEPRDITTVIPQIPPDNANIIECIDNSGVYTNEYGGREMQDLGGGERMTGFELTEGVKTSGMPEICQEYSGTLRRNSMRECREGGLNMNFMESYFCQKAYAYADEDEGRPSNDCLLIYDIEGVGSPAGSVGCCSFIGEDLDDSFLDTLGPKFKKLADISLGKESYPDLDPSWPPQSTEPVCLPQETEPVVSGHPPISPHFGTTTVISESTYPSGPGVLHPKPILDPLGYGNVTVTESYTTSDTLKPSVHVHDNRPASNVVVTERVVGPISGADLHGMLEMPDLRDGSNVIVTERVIAPSSSLPTSLTIHHPRESSNVVVTERVIQPTSGMIGSLSMHPELANAHNVIVTERVVSGAGVTGISGTTGISGGIGSSGLVGTSMGAGSGALSGAGISGGGIGLSSLGGTASIGHMRSSSDHHFNQTIGSASPSTARSRITKYSTVQYSK	2
